Test results from patent US20030143595A1 (Harvard, published 2003).

Molecular target: T1, murine HIP polypeptide (mouse hedgehog interacting protein) (mouse, UniProt Q7TN16 16-700)
T1 construct: In the expression cloning screen the protein was expressed in cells from a mouse limb bud cDNA library plasmid; also called Mouse HIP; mouse HIP clone
T1 sequence: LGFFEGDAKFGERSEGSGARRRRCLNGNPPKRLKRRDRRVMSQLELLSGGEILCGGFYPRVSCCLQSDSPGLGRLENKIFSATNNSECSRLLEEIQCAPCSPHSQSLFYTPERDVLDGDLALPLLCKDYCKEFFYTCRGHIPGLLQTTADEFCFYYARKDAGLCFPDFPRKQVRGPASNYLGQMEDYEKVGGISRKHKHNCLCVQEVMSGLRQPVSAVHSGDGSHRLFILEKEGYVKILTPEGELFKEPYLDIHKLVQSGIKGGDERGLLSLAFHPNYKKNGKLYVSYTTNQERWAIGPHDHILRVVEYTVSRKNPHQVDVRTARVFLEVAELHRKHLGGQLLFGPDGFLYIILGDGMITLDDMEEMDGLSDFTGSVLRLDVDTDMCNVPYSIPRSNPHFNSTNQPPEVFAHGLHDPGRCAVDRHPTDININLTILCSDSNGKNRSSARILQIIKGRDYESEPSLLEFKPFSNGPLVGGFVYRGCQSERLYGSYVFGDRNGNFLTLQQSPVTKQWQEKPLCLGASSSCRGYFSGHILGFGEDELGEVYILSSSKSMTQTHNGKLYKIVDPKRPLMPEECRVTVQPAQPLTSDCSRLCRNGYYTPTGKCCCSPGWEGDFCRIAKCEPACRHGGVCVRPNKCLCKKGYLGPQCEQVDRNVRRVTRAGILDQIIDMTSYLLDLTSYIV
Assay: ligand-receptor binding study

Kd: ~1 nM
B1: Desert hedgehog (Dhh) (ligand)
chain: not shown
